Four substances from article PMC10953500 can be followed below.

Experiment [1] concerns the target recombinant CD89 (Fc-alpha receptor, FcαRI) with C-terminal His-tag (UniProt P24071). In words: SPR.
Experiment [2] addresses receptor binding domain (RBD) of the SARS-CoV-2 spike protein with C-terminal 6xHis-tag (SARS-CoV-2) (UniProt P0DTC2). In words: SPR.

Chain of recombinant CD89 (Fc-alpha receptor, FcαRI) with C-terminal His-tag (P24071 22-227): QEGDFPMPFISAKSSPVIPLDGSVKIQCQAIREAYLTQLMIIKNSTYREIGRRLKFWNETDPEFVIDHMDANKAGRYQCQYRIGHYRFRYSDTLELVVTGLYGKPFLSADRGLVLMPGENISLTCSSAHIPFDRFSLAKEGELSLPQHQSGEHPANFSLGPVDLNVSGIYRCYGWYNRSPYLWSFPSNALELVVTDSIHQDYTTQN
Chain of COVA2-15 IgA1 produced in HEK293-6E cells ("HEK") (P01876 whole entry, looked up, tested part not stated): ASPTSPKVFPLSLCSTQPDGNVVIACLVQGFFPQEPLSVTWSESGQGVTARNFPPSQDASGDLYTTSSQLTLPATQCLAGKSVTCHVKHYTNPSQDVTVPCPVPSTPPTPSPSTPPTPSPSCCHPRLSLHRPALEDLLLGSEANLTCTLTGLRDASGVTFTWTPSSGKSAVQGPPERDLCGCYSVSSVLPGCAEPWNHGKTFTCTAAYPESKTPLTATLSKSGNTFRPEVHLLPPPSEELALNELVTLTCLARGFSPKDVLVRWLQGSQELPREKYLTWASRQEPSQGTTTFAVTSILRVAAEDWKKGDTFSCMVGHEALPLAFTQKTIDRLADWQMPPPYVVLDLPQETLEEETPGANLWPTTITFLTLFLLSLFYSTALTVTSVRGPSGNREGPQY
Chain of COVA2-15 IgA1 produced in the NbP4H10 knockout line pB109-1C ("H10-KO") (P01876 whole entry, looked up): as the sequence (P01876 whole entry, looked up, tested part not stated) above
Chain of COVA2-15 IgA1 produced in the H10-KO line co-infiltrated with GalNAc-T2 and C1GalT1 ("H10+O") (P01876 whole entry, looked up, tested part not stated): as above
Chain of COVA2-15 IgA1 produced in N. benthamiana wildtype ("WT") (P01876 whole entry, looked up, tested part not stated): as above

For the substance “COVA2-15 IgA1 produced in HEK293-6E cells ("HEK") (from UniProt P01876)”, the results for the Kd in experiment [1] and in experiment [2] were 36.7 nM and 0.85 nM, respectively.

In the case of “COVA2-15 IgA1 produced in N. benthamiana wildtype ("WT") (from UniProt P01876)”, the Kd stood at 66.6 nM in experiment [1] and 1.53 nM in experiment [2].

As for “COVA2-15 IgA1 produced in the H10-KO line co-infiltrated with GalNAc-T2 and C1GalT1 ("H10+O") (from UniProt P01876)”, the dissociation constant Kd in experiment [1] worked out at 31.7 nM; in experiment [2] it was 1.25 nM.

For “COVA2-15 IgA1 produced in the NbP4H10 knockout line pB109-1C ("H10-KO") (from UniProt P01876)”, the Kd in experiment [1] is 61.3 nM; in experiment [2], 1.31 nM.
